# Measurements published in IntAct's records for PubMed 21212461.
# B1: NAD-dependent protein deacetylase sirtuin-3, mitochondrial (Homo sapiens), Q9NTG7 (parent)
# chain: MAFWGWRAAAALRLWGRVVERVEAGGGVGPFQACGCRLVLGGRDDVSAGLRGSHGARGEPLDPARPLQRPPRPEVPRAFRRQPRAAAPSFFFSSIKGGRRSISFSVGASSVVGSGGSSDKGKLSLQDVAELIRARACQRVVVMVGAGISTPSGIPDFRSPGSGLYSNLQQYDLPYPEAIFELPFFFHNPKPFFTLAKELYPGNYKPNVTHYFLRLLHDKGLLLRLYTQNIDGLERVSGIPASKLVEAHGTFASATCTVCQRPFPGEDIRADVMADRVPRCPVCTGVVKPDIVFFGEPLPQRFLLHVVDFPMADLLLILGTSLEVEPFASLTEAVRSSVPRLLINRDLVGPLAWHPRSRDVAQLGDVVHGVESLVELLGWTEEMRDLVQRETGKLDGPDK
# Variants of: B1
# Conditions: with ppif_mouse Ppif
row,effect of a mutation on the interaction,Variant
1,disrupting interaction,H248Y
